Results taken from the supplement of paper PMC10126150.
± gives the standard deviation of the averaged measurements.

system: ATP; test: switch fluorescence ratio, 500 uM ATP over buffer (Cy3 cluster intensity, sum of 5 cycles each) (fold (ratio)); higher = stronger signal-on switching upon ATP binding; sequences stand for … in TCGTCGGCAGCGTCAGATGTGTATAAGAGACAGTTTTTTTTTTTTTTTTTTTTTTTTT…TC; conditions: aptamer strand: ATP DNA aptamer (quencher-CACCTGGGGGAGTATTGCGGAGGAAGG + anchor), 100 nM annealed; ATP concentration: 500 uM
In short: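 Between each of five buffer/ATP cycles, the flow-cell was stripped with NaOH and re-annealed. Each cycle imaged Cy3-labelled switching-strand clusters, annealed to 100 nM quencher-labelled ATP aptamer on a modified Illumina MiSeq flow-cell, first in selection buffer and then after 15 min with 500 uM ATP at 22 °C. The fluorescence ratio is summed target-cycle over summed buffer-cycle Cy3 intensity per cluster, averaged per switch-domain sequence, with clusters outside 100-1000 RFU excluded.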
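Also: ATP exposure 15 min at 22 °C before imaging.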

Row | Sequence | switch fluorescence ratio
1 | TCAGTGACGG | 1.0248 ± 0.00071
2 | TTTACGTCGG | 1.02 ± 0.034
3 | AAACGTCCT | 1.07 ± 0.012
4 | GCTACACTGA | 1.04 ± 0.023
5 | GGATAGGTAT | 1.02 ± 0.066
6 | TTTTTTATCG | 1 ± 0.031
7 | ACCGACTTGC | 1.09 ± 0.018
8 | TTTTCAAGTG | 1 ± 0.029
9 | GTGCTCTTAC | 1.11 ± 0.014
10 | TGGGCTTCAT | 0.998 ± 0.028
11 | CGGATTCGTA | 0.986 ± 0.036
12 | AAGATGATGG | 1.01 ± 0.023
13 | ACGTGTATTT | 1.08 ± 0.09
14 | AAGTGTATGC | 1.01 ± 0.038
15 | GGGGACAGAT | 0.991 ± 0.017
16 | GTGATAGGGC | 0.999 ± 0.025
17 | CAAGTAGTGG | 1.03 ± 0.011
18 | AAGGTGGTTG | 0.969 ± 0.016
19 | GGGTGAAGAA | 0.967 ± 0.019
20 | CAAATATTTT | 0.996 ± 0.017
21 | CTAAAATTAA | 1.01 ± 0.031
22 | ATGAAATAAA | 0.9835 ± 0.0022
23 | AAAAACACCG | 1.09 ± 0.078
24 | TAGTGTATTC | 0.989 ± 0.026
25 | CACGTTGTAT | 1.32 ± 0.42

Row | Sequence | switch fluorescence ratio
26 | GGAAGGGATG | 1 ± 0.026
27 | GTGGGACGAG | 0.971 ± 0.018
28 | TTTGAGTGGT | 0.993 ± 0.013
29 | TAAGCAGTTA | 1.08 ± 0.12
30 | AAGGGTGAC | 1.01 ± 0.032
31 | CAGAGAAAGG | 0.997 ± 0.014
32 | TAGGGGCGCG | 0.982 ± 0.078
33 | TGCGGTATGT | 1.019 ± 0.0014
34 | TATTGCGGTC | 1.005 ± 0.0018
35 | TTGGGCATCA | 1 ± 0.065
36 | TATATTAGCC | 1.03 ± 0.039
37 | GCCTAATGGT | 0.993 ± 0.016
38 | TTTTTCGTGA | 1.13 ± 0.15
39 | ATCGGAGGGA | 0.986 ± 0.028
40 | GTAGGCAAGA | 1.03 ± 0.071
41 | CGGTGGGATT | 0.979 ± 0.019
42 | TCAGTATGTT | 0.965 ± 0.019
43 | TTCTCCTTTT | 1.01 ± 0.021
44 | CGAGTTACGG | 1.01 ± 0.019
45 | TTAATATAAG | 1.02 ± 0.021
46 | ATTGGGTTTG | 1.01 ± 0.021
47 | TCTGGTGTTT | 0.986 ± 0.024
48 | ATAGTTAGGT | 1.03 ± 0.029
49 | GGTTTCGCGC | 1.01 ± 0.013
50 | GGAGGGGATT | 0.982 ± 0.03

Row | Sequence | switch fluorescence ratio
51 | GGCCGGGGAG | 0.981 ± 0.018
52 | TGCTAGCCTG | 0.9955 ± 0.004
53 | GGGGGGTT | 0.9904 ± 0.005
54 | GGTGCATATA | 1.05 ± 0.032
55 | TTCAGTAGAG | 1.03 ± 0.024
56 | ACAGGGGTCT | 1.06 ± 0.024
57 | AGTCGTTGGG | 0.984 ± 0.015
58 | TAATATGGGT | 0.988 ± 0.023
59 | GGTATTTTAA | 1.04 ± 0.027
60 | AGGTCATCGA | 1.004 ± 0.0064
61 | ATAAGCGCGT | 0.999 ± 0.017
62 | TTTGGCGGGG | 0.999 ± 0.04
63 | GGTCGCGGGG | 1.03 ± 0.027
64 | GGTACTATAG | 1.034 ± 0.0066
65 | TGCTATCATC | 0.989 ± 0.02
66 | TGATGCAATT | 1.36 ± 0.24
67 | TTTTGTATGG | 0.9893 ± 0.0079
68 | AATCGTGTAG | 1.04 ± 0.025
69 | ATTGGCGGTT | 1.09 ± 0.1
70 | TGCGCCATTT | 1.13 ± 0.26
71 | ATTATGCTGG | 0.994 ± 0.026
72 | CGGGGCGGAT | 1.04 ± 0.016
73 | TTAGGAAGGG | 0.956 ± 0.035
74 | TATTAAACCG | 1.06 ± 0.013
75 | CAGGGGCTTA | 1 ± 0.038

Row | Sequence | switch fluorescence ratio
76 | GGGGAGGTAA | 0.973 ± 0.012
77 | TGAGGCGCGG | 0.97 ± 0.025
78 | GGAAAGCGTG | 0.993 ± 0.084
79 | TAGAGGCAGC | 0.999 ± 0.044
80 | GGAGGGATCT | 0.966 ± 0.011
81 | TAAATGGACG | 0.9669 ± 0.0095
82 | TGTAGCATCT | 1.081 ± 0.0096
83 | TTGGCATGGC | 1.04 ± 0.026
84 | GGGTTTTTAG | 0.994 ± 0.033
85 | TCCGGGAAAT | 2.88 ± 0.66
86 | GGGATGACGG | 0.975 ± 0.036
87 | GGATCTGTCG | 0.98 ± 0.037
88 | ACGCTTGAAT | 1.01 ± 0.023
89 | CGTGGTTTGC | 1.03 ± 0.053
90 | CACTAGGGGA | 1 ± 0.028
91 | TGGGAGAGTG | 0.994 ± 0.0055
92 | ATTTAGGGCA | 1.02 ± 0.051
93 | GCTATTGTTC | 0.967 ± 0.039
94 | GGGAATAGAT | 0.9835 ± 0.002
95 | AAGGTATGGG | 1.06 ± 0.073
96 | ATCATTTGGG | 0.997 ± 0.039
97 | TATAAATGAA | 0.9921 ± 0.0043
98 | AGGTGTTAAA | 0.9941 ± 0.0033
99 | GGTGTAGGCA | 0.987 ± 0.03
100 | GATAGCCGAT | 1.031 ± 0.0015

Row | Sequence | switch fluorescence ratio
101 | AAGTCTAAGG | 0.964 ± 0.05
102 | GTTGTAAAGG | 1.02 ± 0.026
103 | GGGACACGA | 0.988 ± 0.024
104 | GGCCATCCAG | 1.01 ± 0.036
105 | AGTGAGGCGC | 1.01 ± 0.024
106 | ATGAAAACGG | 1 ± 0.051
107 | TTTGCGAACA | 1.06 ± 0.079
108 | AACTTTGTTG | 1 ± 0.011
109 | AGATTTGCTA | 1.004 ± 0.0078
110 | GGGTGGAATT | 1.005 ± 0.0092
111 | TCAACGAGTA | 1.029 ± 0.0061
112 | GTTAGGTAGG | 0.9818 ± 0.005
113 | GGATGTGTAA | 1.007 ± 0.007
114 | TTAAGAATTA | 1.03 ± 0.047
115 | GGCCCGTACT | 1.04 ± 0.042
116 | ACTTTAATTG | 1.002 ± 0.0014
117 | CTGGGCACAT | 1.05 ± 0.015
118 | AAATCGATGT | 1 ± 0.02
119 | ACTAGTATTA | 1 ± 0.036
120 | GTTTAAGTTA | 0.991 ± 0.025
121 | ACGTGGGGTA | 1.04 ± 0.022
122 | TTGGGACGGA | 1.01 ± 0.034
123 | TTTTTCATCA | 0.982 ± 0.036
124 | CATTTTTTT | 0.99009 ± 0.00046
125 | AATAACTAGA | 0.9804 ± 0.0037

Row | Sequence | switch fluorescence ratio
126 | TTTCTATACG | 1.02 ± 0.031
127 | CCGGAAGGGG | 1.06 ± 0.02
128 | TTCTTTTAGG | 0.996 ± 0.03
129 | GACTGCGGAA | 2.04 ± 0.038
130 | CTTGCCGGCG | 1.07 ± 0.03
131 | ACCAATTTTT | 1.03 ± 0.026
132 | AGAGGAGAAT | 0.993 ± 0.0021
133 | GTGGGGTGGG | 0.986 ± 0.029
134 | AGGGGGTGGC | 0.986 ± 0.048
135 | CGGATAATTG | 0.9886 ± 0.0054
136 | ATTCACGGCC | 1.06 ± 0.043
137 | ACGTGGGGAG | 1.08 ± 0.022
138 | TCTGTTTTGG | 1 ± 0.038
139 | GCCTGATACA | 1.02 ± 0.031
140 | TTAAGGCGGG | 1 ± 0.05
141 | GTCTGTTATT | 1.01 ± 0.035
142 | TGGCCAGCTC | 0.975 ± 0.016
143 | GGGGCTTTTG | 0.98 ± 0.04
144 | AATGATGGGT | 0.985 ± 0.019
145 | GACTGGATAG | 0.983 ± 0.022
146 | ACCAGGGACG | 1.02 ± 0.073
147 | ACGGGACGTA | 1.04 ± 0.014
148 | GTGATTTAGA | 0.9969 ± 0.0054
149 | AGTTATCCGG | 0.97 ± 0.044
150 | AGGATGGTTT | 1.002 ± 0.0077

Row | Sequence | switch fluorescence ratio
151 | GTATCCCGTG | 0.977 ± 0.018
152 | CGAGCATTGA | 1.12 ± 0.012
153 | TGACGGGAGG | 0.991 ± 0.04
154 | TTGACGAATC | 1.067 ± 0.002
155 | ATGGTTTTGC | 0.977 ± 0.029
156 | ATTTCGGGGA | 0.997 ± 0.042
157 | ATCCTTCTAA | 1.05 ± 0.018
158 | GGCATAGAAT | 1.001 ± 0.0012
159 | TAGCTCAGGG | 1.065 ± 0.0032
160 | CGGGGGGTGC | 1.01 ± 0.082
161 | AAGGGTAGAT | 1.01 ± 0.038
162 | CGAGCATTTA | 1.325 ± 0.012
163 | GGGTCTGGTT | 0.976 ± 0.033
164 | GCAGAAGTAC | 2.37 ± 0.075
165 | GGTTGGAAGG | 0.9761 ± 0.0047
166 | GAAATATCAT | 0.971 ± 0.018
167 | TTGTAGCGGT | 1.05 ± 0.034
168 | TAAAAGTTGG | 0.985 ± 0.029
169 | GATATTGAAG | 0.974 ± 0.031
170 | TTATGGTTAT | 1.03 ± 0.015
171 | GTTGGACGCT | 0.986 ± 0.029
172 | TTAGGCACAA | 1.03 ± 0.038
173 | TGGTTTTAGC | 0.9886 ± 0.0028
174 | TTGGAGTGGG | 0.987 ± 0.051
175 | GATTGATTGC | 1 ± 0.033

Row | Sequence | switch fluorescence ratio
176 | CTTAGTGTTC | 0.992 ± 0.028
177 | TTTGAGGGTT | 0.983 ± 0.026
178 | TTTTCTGTGT | 0.9398 ± 0.0077
179 | ATGGAGAACT | 0.976 ± 0.024
180 | GAGGTAAGGT | 1 ± 0.015
181 | GAGGCGGCTG | 0.994 ± 0.038
182 | TAGGTGGCGC | 1.08 ± 0.013
183 | TCGGATAGTC | 1.01 ± 0.026
184 | TGTGGCTTAA | 0.9668 ± 0.0021
185 | TTGCGGACCA | 0.996 ± 0.043
186 | GGGGGGATAC | 1.7 ± 0.61
187 | TTGGTAAGCG | 1.02 ± 0.051
188 | ACATAGCGAA | 1.13 ± 0.026
189 | ATGAAGAGAT | 0.9886 ± 0.0064
190 | CGATTTTGGA | 0.9941 ± 0.0078
191 | CTAATTTGCC | 1.02 ± 0.084
192 | TAAAGTAGTC | 1.05 ± 0.044
193 | ATGTATTCGA | 0.996 ± 0.027
194 | TGGTTTCCCA | 0.9738 ± 0.0042
195 | TATTACCCAA | 1.05 ± 0.025
196 | TTTTGATCAA | 1.01 ± 0.02
197 | AGACAGGGCC | 0.988 ± 0.01
198 | CAGGGGCTTT | 1.04 ± 0.0067
199 | AGCTGTTTGG | 1 ± 0.015
200 | GGCGTAGGAG | 0.997 ± 0.021
